Results on three molecules are retold here after doi:10.1101/2025.11.29.691178 (bioRxiv, 2025).

Assay [1] deals with T1, human biliverdin reductase B (BLVRB), recombinant, full length (human, UniProt P30043 1-206).
T1 sequence: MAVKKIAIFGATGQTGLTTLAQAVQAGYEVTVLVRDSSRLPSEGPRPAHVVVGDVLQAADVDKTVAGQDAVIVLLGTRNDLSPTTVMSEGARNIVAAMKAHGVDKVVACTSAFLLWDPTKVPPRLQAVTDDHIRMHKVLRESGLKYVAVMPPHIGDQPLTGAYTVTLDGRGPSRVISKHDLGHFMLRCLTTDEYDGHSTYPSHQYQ
Kind of assay: NMR titration.

Assay [2] addresses T2, Band 3 (SLC4A1), endogenous in human red blood cells (human (endogenous in RBCs), UniProt P02730 1-911).
T2 sequence: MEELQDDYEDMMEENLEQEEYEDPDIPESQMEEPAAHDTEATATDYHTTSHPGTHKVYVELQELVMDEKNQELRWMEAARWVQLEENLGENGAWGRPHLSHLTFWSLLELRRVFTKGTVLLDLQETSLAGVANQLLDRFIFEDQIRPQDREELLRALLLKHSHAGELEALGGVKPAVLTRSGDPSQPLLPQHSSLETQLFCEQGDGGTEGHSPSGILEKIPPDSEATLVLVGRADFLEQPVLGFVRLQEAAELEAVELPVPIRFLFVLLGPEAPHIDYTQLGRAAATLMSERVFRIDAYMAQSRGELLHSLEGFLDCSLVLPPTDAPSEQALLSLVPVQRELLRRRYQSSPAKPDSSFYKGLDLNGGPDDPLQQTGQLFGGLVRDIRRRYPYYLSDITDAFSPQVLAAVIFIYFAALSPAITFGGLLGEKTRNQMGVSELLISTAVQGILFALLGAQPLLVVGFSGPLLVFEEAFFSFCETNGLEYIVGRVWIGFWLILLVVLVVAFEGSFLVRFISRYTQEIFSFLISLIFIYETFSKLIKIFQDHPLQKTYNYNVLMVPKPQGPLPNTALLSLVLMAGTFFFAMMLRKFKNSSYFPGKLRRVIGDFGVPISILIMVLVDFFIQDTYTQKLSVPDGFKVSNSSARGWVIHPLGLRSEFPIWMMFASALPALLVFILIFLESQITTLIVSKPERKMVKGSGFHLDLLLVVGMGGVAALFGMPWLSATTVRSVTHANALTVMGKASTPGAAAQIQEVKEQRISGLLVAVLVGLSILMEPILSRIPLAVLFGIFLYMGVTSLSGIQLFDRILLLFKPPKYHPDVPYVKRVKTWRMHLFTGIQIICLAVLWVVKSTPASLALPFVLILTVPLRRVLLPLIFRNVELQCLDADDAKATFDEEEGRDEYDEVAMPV
Kind of assay: cross-linking.

B1: Band 3 (SLC4A1) N-terminal residues 1-56, recombinant (domain or fragment)
chain: MEELQDDYEDMMEENLEQEEYEDPDIPESQMEEPAAHDTEATATDYHTTSHPGTHK
On to B1, for which, in assay [1], the binding result is given as “binds”.

Consider MEELQDDYEDMMEENLEQEEYEDPDIPESQ (domain or fragment) [Band 3 (SLC4A1) N-terminal residues 1-30, recombinant], for which the binding result in assay [1] is listed as “binds”.

B2: hemoglobin (deoxyhemoglobin tetramer), endogenous in human red blood cells (complex)
chain 1: not shown
chain 2: not shown
For B2, the “fold change of cross-links, hypoxia against normoxia” value in assay [2] was 3 fold.
